# Results: PMC9104182
# Molecular target: photoconvertible fluorescent protein DendFP (Dendronephthya sp)
# Assay: crystal structure; native DendFP crystals, hanging drop at 22 °C, 100 mM Tris-HCl pH 7.5, 0.2 M MgCl2, 20% PEG4000; eight molecules (two tetramers) in the asymmetric unit; interfaces analysed with PISA
substance,measurement,value
photoconvertible fluorescent protein DendFP (natural protein),stoichiometry N,4
